According to IntAct's records for PubMed 9389648:

B1: Mothers against decapentaplegic homolog 2 (Homo sapiens), Q15796 (parent)
chain: MSSILPFTPPVVKRLLGWKKSAGGSGGAGGGEQNGQEEKWCEKAVKSLVKKLKKTGRLDELEKAITTQNCNTKCVTIPSTCSEIWGLSTPNTIDQWDTTGLYSFSEQTRSLDGRLQVSHRKGLPHVIYCRLWRWPDLHSHHELKAIENCEYAFNLKKDEVCVNPYHYQRVETPVLPPVLVPRHTEILTELPPLDDYTHSIPENTNFPAGIEPQSNYIPETPPPGYISEDGETSDQQLNQSMDTGSPAELSPTTLSPVNHSLDLQPVTYSEPAFWCSIAYYELNQRVGETFHASQPSLTVDGFTDPSNSERFCLGLLSNVNRNATVEMTRRHIGRGVRLYYIGGEVFAECLSDSAIFVQSPNCNQRYGWHPATVCKIPPGCNLKIFNNQEFAALLAQSVNQGFEAVYQLTRMCTIRMSFVKGWGAEYRRQTVTSTPCWIELHLNGPLQWLDKVLTQMGSPSVRCSSMS
partner: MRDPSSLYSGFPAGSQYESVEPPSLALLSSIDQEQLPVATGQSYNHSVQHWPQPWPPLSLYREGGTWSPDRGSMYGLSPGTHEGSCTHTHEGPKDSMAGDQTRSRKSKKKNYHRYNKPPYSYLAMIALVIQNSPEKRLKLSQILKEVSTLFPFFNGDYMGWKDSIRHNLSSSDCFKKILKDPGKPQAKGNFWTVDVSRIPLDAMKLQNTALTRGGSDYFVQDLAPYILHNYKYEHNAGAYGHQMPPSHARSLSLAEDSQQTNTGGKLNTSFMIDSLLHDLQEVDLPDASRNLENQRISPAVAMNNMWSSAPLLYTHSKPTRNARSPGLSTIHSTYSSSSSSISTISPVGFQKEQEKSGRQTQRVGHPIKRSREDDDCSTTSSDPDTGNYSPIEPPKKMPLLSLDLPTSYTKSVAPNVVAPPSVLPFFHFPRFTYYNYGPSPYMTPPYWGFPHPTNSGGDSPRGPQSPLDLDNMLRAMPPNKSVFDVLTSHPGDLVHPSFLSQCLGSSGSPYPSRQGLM

Variants of: B1
Settings: with foxh1_xenla foxh1, P70056

Row | Variant | effect of a mutation on the interaction
1 | D450E | disrupting interaction
2 | S464A;S465A;S467A | disrupting interaction
